Assay results from IntAct's records for PubMed 25910212.

B1: Lipopolysaccharide-induced tumor necrosis factor-alpha factor (Homo sapiens), Q99732 (parent)
chain: MSVPGPYQAATGPSSAPSAPPSYEETVAVNSYYPTPPAPMPGPTTGLVTGPDGKGMNPPSYYTQPAPIPNNNPITVQTVYVQHPITFLDRPIQMCCPSCNKMIVSQLSYNAGALTWLSCGSLCLLGCIAGCCFIPFCVDALQDVDHYCPNCRALLGTYKRL
partner: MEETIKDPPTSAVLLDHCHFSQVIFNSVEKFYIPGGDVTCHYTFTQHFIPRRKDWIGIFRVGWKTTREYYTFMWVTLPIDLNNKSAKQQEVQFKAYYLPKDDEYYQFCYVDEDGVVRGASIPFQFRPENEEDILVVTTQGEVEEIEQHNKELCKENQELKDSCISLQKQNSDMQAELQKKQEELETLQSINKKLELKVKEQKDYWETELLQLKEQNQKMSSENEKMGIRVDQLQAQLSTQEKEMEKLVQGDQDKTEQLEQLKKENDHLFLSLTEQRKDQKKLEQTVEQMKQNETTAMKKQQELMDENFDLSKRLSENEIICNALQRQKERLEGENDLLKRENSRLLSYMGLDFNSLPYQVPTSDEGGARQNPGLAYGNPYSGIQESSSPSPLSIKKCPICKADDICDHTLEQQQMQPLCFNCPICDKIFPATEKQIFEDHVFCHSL
B2: U4/U6 small nuclear ribonucleoprotein Prp31 (Homo sapiens), Q8WWY3 (parent)
chain: MSLADELLADLEEAAEEEEGGSYGEEEEEPAIEDVQEETQLDLSGDSVKTIAKLWDSKMFAEIMMKIEEYISKQAKASEVMGPVEAAPEYRVIVDANNLTVEIENELNIIHKFIRDKYSKRFPELESLVPNALDYIRTVKELGNSLDKCKNNENLQQILTNATIMVVSVTASTTQGQQLSEEELERLEEACDMALELNASKHRIYEYVESRMSFIAPNLSIIIGASTAAKIMGVAGGLTNLSKMPACNIMLLGAQRKTLSGFSSTSVLPHTGYIYHSDIVQSLPPDLRRKAARLVAAKCTLAARVDSFHESTEGKVGYELKDEIERKFDKWQEPPPVKQVKPLPAPLDGQRKKRGGRRYRKMKERLGLTEIRKQANRMSFGEIEEDAYQEDLGFSLGHLGKSGSGRVRQTQVNEATKARISKTLQRTLQKQSVVYGGKSTIRDRSSGTASSVAFTPLQGLEIVNPQAAEKKVAEANQKYFSSMAEFLKVKGEKSGLMST
partner: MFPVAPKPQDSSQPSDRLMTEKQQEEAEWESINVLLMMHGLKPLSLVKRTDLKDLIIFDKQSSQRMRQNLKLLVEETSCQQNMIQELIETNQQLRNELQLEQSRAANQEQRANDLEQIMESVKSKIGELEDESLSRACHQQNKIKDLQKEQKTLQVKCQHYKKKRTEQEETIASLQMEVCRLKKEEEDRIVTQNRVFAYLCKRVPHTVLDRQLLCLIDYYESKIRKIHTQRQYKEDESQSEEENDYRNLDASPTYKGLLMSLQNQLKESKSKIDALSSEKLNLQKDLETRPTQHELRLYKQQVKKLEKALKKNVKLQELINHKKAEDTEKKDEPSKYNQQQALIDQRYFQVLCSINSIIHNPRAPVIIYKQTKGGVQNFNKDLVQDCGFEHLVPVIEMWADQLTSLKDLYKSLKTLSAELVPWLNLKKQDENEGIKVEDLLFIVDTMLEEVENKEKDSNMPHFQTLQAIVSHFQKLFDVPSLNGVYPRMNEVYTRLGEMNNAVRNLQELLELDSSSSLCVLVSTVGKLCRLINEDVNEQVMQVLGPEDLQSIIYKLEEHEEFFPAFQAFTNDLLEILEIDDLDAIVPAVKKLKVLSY
B3: PiggyBac transposable element-derived protein 1 (Homo sapiens), Q96JS3 (parent)
chain: MYEALPGPAPENEDGLVKVKEEDPTWEQVCNSQEGSSHTQEICRLRFRHFCYQEAHGPQEALAQLRELCHQWLRPEMHTKEQIMELLVLEQFLTILPKELQPCVKTYPLESGEEAVTVLENLETGSGDTGQQASVYIQGQDMHPMVAEYQGVSLECQSLQLLPGITTLKCEPPQRPQGNPQEVSGPVPHGSAHLQEKNPRDKAVVPVFNPVRSQTLVKTEEETAQAVAAEKWSHLSLTRRNLCGNSAQETVMSLSPMTEEIVTKDRLFKAKQETSEEMEQSGEASGKPNRECAPQIPCSTPIATERTVAHLNTLKDRHPGDLWARMHISSLEYAAGDITRKGRKKDKARVSELLQGLSFSGDSDVEKDNEPEIQPAQKKLKVSCFPEKSWTKRDIKPNFPSWSALDSGLLNLKSEKLNPVELFELFFDDETFNLIVNETNNYASQKNVSLEVTVQEMRCVFGVLLLSGFMRHPRREMYWEVSDTDQNLVRDAIRRDRFELIFSNLHFADNGHLDQKDKFTKLRPLIKQMNKNFLLYAPLEEYYCFDKSMCECFDSDQFLNGKPIRIGYKIWCGTTTQGYLVWFEPYQEESTMKVDEDPDLGLGGNLVMNFADVLLERGQYPYHLCFDSFFTSVKLLSALKKKGVRATGTIRENRTEKCPLMNVEHMKKMKRGYFDFRIEENNEIILCRWYGDGIISLCSNAVGIEPVNEVSCCDADNEEIPQISQPSIVKVYDECKEGVAKMDQIISKYRVRIRSKKWYSILVSYMIDVAMNNAWQLHRACNPGASLDPLDFRRFVAHFYLEHNAHLSD

Variants of: B1
Conditions: with caco2_human CALCOCO2, Q13137

Row | Variant | effect of a mutation on the interaction
1 | A111G | disrupting interaction strength
2 | I92V | with no effect
3 | G112S | disrupting interaction strength

Variants of: B2
Conditions: with cep70_human CEP70, Q8NHQ1

Row | Variant | effect of a mutation on the interaction
4 | L107V | with no effect

Variants of: B3
Conditions: with NR4A1, P22736-2
Sequence of NR4A1, P22736-2 (P22736 other isoform, or with tags, fused parts or gaps): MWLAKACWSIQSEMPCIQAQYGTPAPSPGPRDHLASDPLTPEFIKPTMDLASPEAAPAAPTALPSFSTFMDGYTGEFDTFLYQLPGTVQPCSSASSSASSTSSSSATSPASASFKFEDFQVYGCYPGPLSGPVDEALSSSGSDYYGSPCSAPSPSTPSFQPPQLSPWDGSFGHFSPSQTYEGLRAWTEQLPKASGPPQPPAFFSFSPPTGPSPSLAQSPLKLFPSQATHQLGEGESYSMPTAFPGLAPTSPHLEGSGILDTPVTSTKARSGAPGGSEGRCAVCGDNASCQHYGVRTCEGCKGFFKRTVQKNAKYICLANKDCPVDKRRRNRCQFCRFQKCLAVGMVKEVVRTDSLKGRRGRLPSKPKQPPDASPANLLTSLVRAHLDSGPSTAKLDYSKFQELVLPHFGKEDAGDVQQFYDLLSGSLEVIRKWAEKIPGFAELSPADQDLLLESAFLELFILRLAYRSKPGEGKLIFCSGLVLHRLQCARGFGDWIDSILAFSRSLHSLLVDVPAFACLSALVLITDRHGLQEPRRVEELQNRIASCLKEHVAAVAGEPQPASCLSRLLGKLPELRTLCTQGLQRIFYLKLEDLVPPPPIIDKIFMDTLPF

Row | Variant | effect of a mutation on the interaction
5 | G244E | with no effect
6 | H806D | with no effect
7 | Q248E | with no effect
8 | P256L | with no effect

Variants of: B3
Conditions: with znf24_human ZNF24, P17028
Sequence of znf24_human ZNF24, P17028 (P17028 whole entry): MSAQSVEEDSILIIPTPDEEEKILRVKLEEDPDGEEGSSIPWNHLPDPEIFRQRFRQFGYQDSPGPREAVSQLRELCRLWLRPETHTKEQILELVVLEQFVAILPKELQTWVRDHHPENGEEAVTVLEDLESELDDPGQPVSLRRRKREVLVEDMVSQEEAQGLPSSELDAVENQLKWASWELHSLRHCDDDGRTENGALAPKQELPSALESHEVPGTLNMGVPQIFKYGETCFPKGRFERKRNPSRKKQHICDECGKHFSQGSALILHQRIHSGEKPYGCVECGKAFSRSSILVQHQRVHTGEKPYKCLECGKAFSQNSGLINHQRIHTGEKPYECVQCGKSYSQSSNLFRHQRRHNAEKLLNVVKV

Row | Variant | effect of a mutation on the interaction
9 | G244E | with no effect
10 | H806D | with no effect
11 | Q248E | with no effect
12 | P256L | with no effect

Variants of: B3
Conditions: with zn496_human ZNF496, Q96IT1
Sequence of zn496_human ZNF496, Q96IT1 (Q96IT1 whole entry): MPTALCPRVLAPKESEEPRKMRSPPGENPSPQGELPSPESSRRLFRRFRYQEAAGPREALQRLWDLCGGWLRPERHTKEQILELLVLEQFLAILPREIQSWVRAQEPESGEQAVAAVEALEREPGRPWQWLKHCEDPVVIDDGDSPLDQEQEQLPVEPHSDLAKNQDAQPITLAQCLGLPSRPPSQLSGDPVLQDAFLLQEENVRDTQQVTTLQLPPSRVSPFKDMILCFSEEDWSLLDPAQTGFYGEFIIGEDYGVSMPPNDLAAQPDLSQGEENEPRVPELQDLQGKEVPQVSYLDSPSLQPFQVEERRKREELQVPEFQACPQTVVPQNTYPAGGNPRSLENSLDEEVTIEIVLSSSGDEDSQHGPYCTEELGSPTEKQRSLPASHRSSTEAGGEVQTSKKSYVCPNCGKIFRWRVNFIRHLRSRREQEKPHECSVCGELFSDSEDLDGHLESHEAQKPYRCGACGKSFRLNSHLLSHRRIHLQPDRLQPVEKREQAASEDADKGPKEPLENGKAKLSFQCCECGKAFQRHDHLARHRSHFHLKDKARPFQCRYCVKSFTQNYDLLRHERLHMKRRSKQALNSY

Row | Variant | effect of a mutation on the interaction
13 | G244E | with no effect
14 | H806D | with no effect
15 | Q248E | with no effect
16 | P256L | with no effect

Variants of: B3
Conditions: with zsc22_human ZSCAN22, P10073
Sequence of zsc22_human ZSCAN22, P10073 (P10073 whole entry): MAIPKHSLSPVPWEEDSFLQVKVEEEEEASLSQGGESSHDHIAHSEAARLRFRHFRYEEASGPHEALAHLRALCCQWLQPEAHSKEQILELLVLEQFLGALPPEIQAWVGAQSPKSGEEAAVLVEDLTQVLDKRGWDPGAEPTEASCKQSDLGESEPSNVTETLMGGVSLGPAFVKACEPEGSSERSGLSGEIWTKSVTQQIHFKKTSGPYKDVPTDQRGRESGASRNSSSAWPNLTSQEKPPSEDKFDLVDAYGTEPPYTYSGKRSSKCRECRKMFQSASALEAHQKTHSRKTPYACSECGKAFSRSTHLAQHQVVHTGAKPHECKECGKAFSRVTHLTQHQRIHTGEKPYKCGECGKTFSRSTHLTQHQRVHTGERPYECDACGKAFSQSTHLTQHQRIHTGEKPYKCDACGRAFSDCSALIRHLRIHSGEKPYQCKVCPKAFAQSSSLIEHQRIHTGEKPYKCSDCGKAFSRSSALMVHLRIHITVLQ

Row | Variant | effect of a mutation on the interaction
17 | G244E | with no effect
18 | H806D | with no effect
19 | Q248E | with no effect
20 | P256L | with no effect

Variants of: B3
Conditions: with meox2_human MEOX2, P50222
Sequence of meox2_human MEOX2, P50222 (P50222 whole entry): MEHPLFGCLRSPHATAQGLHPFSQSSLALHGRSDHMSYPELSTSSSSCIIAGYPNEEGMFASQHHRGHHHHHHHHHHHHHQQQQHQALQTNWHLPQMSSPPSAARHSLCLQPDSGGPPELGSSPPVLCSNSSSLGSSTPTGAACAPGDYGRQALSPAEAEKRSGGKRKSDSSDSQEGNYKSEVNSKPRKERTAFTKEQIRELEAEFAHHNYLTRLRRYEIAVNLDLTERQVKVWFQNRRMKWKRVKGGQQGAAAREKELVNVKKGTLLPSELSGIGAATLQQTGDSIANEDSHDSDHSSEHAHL

Row | Variant | effect of a mutation on the interaction
21 | G244E | with no effect
22 | H806D | with no effect
23 | Q248E | with no effect
24 | P256L | with no effect
